For assay [1], the system named is influenza A/Hong Kong/2369/2009 (H1N1pdm) H275Y. More on the design: species or system BALB/c mice. To be noted: mouse, in vivo.
In assay [2] the target is hemagglutinin (HA) of influenza A/Michigan/45/2015 pH1N1 (influenza A virus A/Michigan/45/2015 (H1N1)). Put plainly: cell-based or functional assay.
For assay [3], the target named is hemagglutinin (HA) of influenza A/Guangdong-maonan/2019 H1N1 (influenza A virus A/Guangdong-maonan/2019 (H1N1)). Nature of the assay: cell-based or functional assay.
Assay [4] deals with hemagglutinin (HA) of influenza A/Michigan/45/2015 pH1N1 (influenza A virus A/Michigan/45/2015 (H1N1)). Put plainly: cell-based or functional assay. This is another data set of the same source.
The target is the same in assay [5]. Nature of the assay: cell-based or functional assay. This is another data set of the same source.
For assay [6], the target named is hemagglutinin (HA) of influenza A/Guangdong-maonan/2019 H1N1 (influenza A virus A/Guangdong-maonan/2019 (H1N1)). Put plainly: cell-based or functional assay. The source holds these as a separate data set.
The target of assay [7] is hemagglutinin (HA) of influenza A/Hong Kong/2671/2019 (Egg) H3N2 (influenza A virus A/Hong Kong/2671/2019 (H3N2)). Nature of the assay: cell-based or functional assay.

Like-named read-outs stand apart in the source and are kept apart here.

With `CCOC(=O)C1=C[C@@H](OC(CC)CC)[C@H](NC(C)=O)[C@@H](N)C1` [oseltamivir], the “protection from weight loss” value in assay [1] is recorded as “did not protect mice from weight loss”.

SAB-176 (antibody) registered an HAI titer in assay [2] of over 2048 titer.

SAB-176 Lot 1 (PD1901102QR) (antibody): in assay [3], the HAI titer was 512 titer and the HAI titer ratio of SAB-176 to hIVIG lay within 16 to 32 X. In addition, in assay [4], the HAI titer came to 512 titer and the HAI titer ratio of SAB-176 to hIVIG turned out to be 16 X. This compound also gave an HAI titer in assay [5] of 1280 titer. In assay [6], the HAI titer (Cell) was determined as 512 titer, the HAI titer (Egg) worked out at 512 titer, the HAI titer ratio of SAB-176 to hIVIG (Cell) turned out to be 16 X and the HAI titer ratio of SAB-176 to hIVIG (Egg) was 16 to 32 X. Besides, the HAI titer of drug product in assay [2] came out at 7680 titer. For the same compound, in assay [7], the HAI titer (Egg) stood at 64 titer and the HAI titer ratio of SAB-176 to hIVIG (Egg) lay within 4 to 8 X.

SAB-176 Lot 2 (PD2001010QR) (antibody) displayed an HAI titer in assay [5] of 1280 titer. Moreover, in assay [6], the HAI titer (Cell) came to 512 titer, the HAI titer (Egg) was 512 titer, the HAI titer ratio of SAB-176 to hIVIG (Cell) was 16 X and the HAI titer ratio of SAB-176 to hIVIG (Egg) lay in the range of 16 to 32 X. Besides, in assay [2], the HAI titer worked out at 512 titer, the HAI titer of drug product turned out to be 14300 titer and the HAI titer ratio of SAB-176 to hIVIG was 16 X. Also, in assay [7], the HAI titer (Egg) came to 128 titer and the HAI titer ratio of SAB-176 to hIVIG (Egg) was in the range of 8 to 16 X.

With SAB-176 Lot 3 (antibody), in assay [6], the HAI titer (Cell) came to 512 titer, the HAI titer (Egg) was determined as 512 titer, the HAI titer ratio of SAB-176 to hIVIG (Cell) stood at 16 X and the HAI titer ratio of SAB-176 to hIVIG (Egg) fell in the range of 16 to 32 X. In assay [2], the HAI titer came to 512 titer and the HAI titer ratio of SAB-176 to hIVIG worked out at 16 X. In assay [7], the HAI titer (Egg) was found to be 256 titer and the HAI titer ratio of SAB-176 to hIVIG (Egg) was in the range of 16 to 32 X.

SAB-176 Lot 4 (PD2102092QR) (antibody): in assay [3], the HAI titer came to 512 titer and the HAI titer ratio of SAB-176 to hIVIG lay within 16 to 32 X. In assay [5], this compound showed an HAI titer of 1810 titer. Besides, in assay [6], the HAI titer (Cell) amounted to 512 titer, the HAI titer (Egg) was found to be 512 titer, the HAI titer of drug product is 7680 titer and the HAI titer ratio of SAB-176 to hIVIG (Cell) turned out to be 16 X. Moreover, the HAI titer ratio of SAB-176 to hIVIG (Egg) in assay [6] lay within 16 to 32 X. In assay [2], the HAI titer worked out at 512 titer and the HAI titer ratio of SAB-176 to hIVIG was determined as 16 X. In addition, in assay [7], the HAI titer (Egg) is 256 titer and the HAI titer ratio of SAB-176 to hIVIG (Egg) was 16 to 32 X.

Compound SAB-176 Lot 5 (PD2203294QR) (antibody) came in with an HAI titer in assay [5] of 1280 titer.

SAB-176 Lot 6 (PD2204315QR) (antibody): in assay [5], the HAI titer came out at 905 titer.

Regarding negative control IgG (antibody), the HAI titer in assay [3] and in assay [2] was under 1 titer in each case. The compound also had an HAI titer (Cell) in assay [6] of under 1 titer. In addition, the HAI titer (Egg) in assay [6] and in assay [7] was under 1 titer throughout.
